B1: F91A (antibody, V domains shown)
VH: EVQLVQSGAEVKKPGASVKVSCKASGYTFTSYWMHWVRQAPGQRLEWIGEINPTNGRTNYIEKFKSRATLTVDKSASTAYMELSSLRSEDTAVYYCARGTRAYHYWGQGTMVTVSS
VL: DIQMTQSPSSLSASVGDRVTITCRASDNLYSNLAWYQQKPGKSPKLLVYDATNLADGVPSRFSGSGSGTDYTLTISSLQPEDFATYYCQHAWGTPLTFGQGTKVEIK
notes: also called 15G11.v5 F91A (CDR-L3) IgG
B2: W92A (antibody, V domains shown)
VH: B1 VH
VL: B1 VL with A91F, W92A
notes: also called 15G11.v5 W92A (CDR-L3) IgG; 15G11.W92A
B3: T96A (antibody, V domains shown)
VH: B1 VH with T100A
VL: B1 VL with A91F
notes: also called 15G11.v5 T96A (CDR-H3) IgG; copies: 2 + 2
B4: Mu7A4.Fab (Fab, V domains shown)
VH: QVQLQQSGPELVRPGVSVKISCKGSGYTFTDYAMHWVKQSHAKSLEWIGGISTYFGRTNYNQKFKGRATMTVDKSSSTAYMELARLTSEDSALYYCARGLSGNYVMDYWGQGTSVTVSS
VL: DIVLTQSPASLAVSLGQRATISCRASESVDDYGNSFMHWYQQKPGQPPKLLIYRASNLESGIPARFSGSGSRTDFTLTINPVEADDVATYYCQQSNEAPPTFGGGTKLEIR
notes: Fab; also called mouse 7A4 Fab
B5: Hu16F6.v4.Fab (Fab, V domains shown)
VH: EVQLVESGPGLVKPSETLSLTCTVSGNSITSEYAWNWIRQPPGKGLEWIGYISYSGTTSYNPSLKSRVTISRDTSKNQLSLKLSSVTAADTAVYYCARYGYGNPATRYFDVWGQGTLVTVSS
VL: DIQMTQSPSSLSASVGDRVTITCRASKSISKYLAWYQQKPGKTNKLLLYSGSTLQSGVPSRFSGSGSGTDYTLTISSLQPEDFATYYCQQHNEYPWTFGQGTKVEIK
notes: Fab
B6: Mu16F6.Fab (Fab, V domains shown)
VH: DVQLQESGPGLVKPSQSLSLTCTVTGNSITSEYAWNWIRQFPGNKLEWMGYISYSGTTSYNPSLKSRISITRDTSKNQLFLQLNSVTTEDTATYFCARYGYGNPATRYFDVWGAGTTVTVSS
VL: DVQITQSPSYLTASPGETITINCRASKSISKYLAWYQEKPGKTNKLLIYSGSTLQSGIPSRFSGSGSGTDFTLTISNLEPEDFAMYYCQQHNEYPWTFGGGTKLEIK
notes: Fab; also called mouse 16F6 Fab
B7: Hu15G11.HC32A Fab (Fab, V domains shown)
VH: B1 VH with Y32A
VL: B1 VL with A91F
notes: Fab
B8: 6307 (antibody, V domains shown)
VH: QLQLQESGPGLVKPSETLSLTCTVSGGSISWSSYYWSWIRQPPGKGLEWIGSIYRSGRTYYNPSLKGRVTISVDTSKNQFSLKLSSVTAADTAVYYCARVGHGINYFDLWGRGTLVTVSS
VL: EIVLTQSPATLSLSPGERATLSCRASQSVSSYLAWYQQKPGQAPRLLIYDASNRATGIPARFSGSGSGTDFTLTISSLEPEDFAVYYCQQSIVWPPRTFGGGTKVEIK
notes: anti-BACE1 IgG
B9: 6314 (antibody, V domains shown)
VH: B8 VH with W31R, S32G, S37G, S52M, R55Y, R58S, Y60W, G67S, I104V, N105S
VL: B8 VL
notes: anti-BACE1 IgG
B10: 6311 (antibody, V domains shown)
VH: B8 VH with G67S
VL: B8 VL with I92L, V93T
notes: anti-BACE1 IgG
B11: 6313 (antibody, V domains shown)
VH: B8 VH with W31R, S32G, S37G, S52M, R55Y, R58S, Y60W, G67S, I104V, N105S
VL: B8 VL with S91A, I92Y
notes: anti-BACE1 IgG
B12: 6309 (antibody, V domains shown)
VH: B8 VH with G67S
VL: B8 VL with V93T
notes: anti-BACE1 IgG
B13: 6315 (antibody, V domains shown)
VH: B8 VH with W31R, S32G, S37G, S52M, R55Y, R58S, Y60W, G67S, I104V, N105S
VL: B8 VL with N53K, I92L, T103A
notes: anti-BACE1 IgG
B14: 6308 (antibody, V domains shown)
VH: B8 VH with G67S
VL: B8 VL with N53K, I92L
notes: anti-BACE1 IgG
B15: W92A (Fab, V domains shown)
VH: B1 VH
VL: B1 VL with A91F, W92A
notes: also called 15G11.v5 W92A (CDR-L3) Fab
B16: F91A (Fab, V domains shown)
VH: B1 VH
VL: B1 VL
notes: also called 15G11.v5 F91A (CDR-L3) Fab

Residue numbers refer to the chain shown, from its start. Names and notes keep the numbering of the source.
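Throughout, for koff: single cycle kinetics with a Fab dilution series, fitted by a one-to-one Langmuir model or a steady state model, KD taken as koff over kon.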
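Throughout, for kon: single cycle kinetics with a Fab dilution series, fitted by a one-to-one Langmuir model or a steady state model, KD taken as koff over kon.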

T1 sequence (P02786 89-760 G142S): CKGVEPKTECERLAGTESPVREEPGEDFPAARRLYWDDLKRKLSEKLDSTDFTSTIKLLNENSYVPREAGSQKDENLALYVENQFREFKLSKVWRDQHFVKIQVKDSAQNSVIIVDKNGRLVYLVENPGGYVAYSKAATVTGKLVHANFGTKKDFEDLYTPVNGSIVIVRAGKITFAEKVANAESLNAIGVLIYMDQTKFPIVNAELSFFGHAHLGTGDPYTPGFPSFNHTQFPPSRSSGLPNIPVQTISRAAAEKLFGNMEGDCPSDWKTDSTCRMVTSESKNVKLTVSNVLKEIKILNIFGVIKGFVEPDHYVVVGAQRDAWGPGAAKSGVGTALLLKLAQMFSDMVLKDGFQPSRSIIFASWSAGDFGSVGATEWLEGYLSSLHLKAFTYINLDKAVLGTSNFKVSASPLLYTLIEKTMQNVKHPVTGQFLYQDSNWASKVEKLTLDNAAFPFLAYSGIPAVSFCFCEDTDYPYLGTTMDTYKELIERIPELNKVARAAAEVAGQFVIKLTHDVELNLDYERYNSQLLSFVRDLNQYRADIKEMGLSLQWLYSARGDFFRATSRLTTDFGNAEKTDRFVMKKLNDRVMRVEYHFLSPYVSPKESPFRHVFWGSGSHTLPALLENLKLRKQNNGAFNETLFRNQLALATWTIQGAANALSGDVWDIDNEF
Sequence of BACE1 in primary mouse cortical neurons (P56818 46-501): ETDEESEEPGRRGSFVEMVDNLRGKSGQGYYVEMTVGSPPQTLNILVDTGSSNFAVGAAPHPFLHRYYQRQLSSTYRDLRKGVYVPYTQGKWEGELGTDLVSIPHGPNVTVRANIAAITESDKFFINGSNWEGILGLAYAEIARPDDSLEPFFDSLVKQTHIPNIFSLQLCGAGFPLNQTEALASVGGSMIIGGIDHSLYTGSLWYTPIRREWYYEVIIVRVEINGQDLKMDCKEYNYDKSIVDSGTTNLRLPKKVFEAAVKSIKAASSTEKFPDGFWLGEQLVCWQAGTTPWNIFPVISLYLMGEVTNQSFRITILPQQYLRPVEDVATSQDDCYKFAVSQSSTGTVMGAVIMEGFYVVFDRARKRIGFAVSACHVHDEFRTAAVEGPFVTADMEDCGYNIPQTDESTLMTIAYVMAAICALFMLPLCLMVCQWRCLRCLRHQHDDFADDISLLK

One experiment addresses T1, human TfR extracellular domain with N-terminal His tag (human, UniProt P02786 89-760).
T1 construct: Biotinylated in some assays; also called huTfR; HuTfR
Kind of experiment: SPR steady state, IgG.
Description: (§1) Antibody affinities were measured using surface plasmon resonance (“SPR”) (Biacore™, GE Healthcare). Anti-His antibody (Qiagen) was coupled onto four different flow cells of a BIACORE™ CM5 sensor chip (Biacore, Inc., Piscataway, N.J.) at between 6000 and 8000 RU. Immobilization was achieved by random coupling through amino groups using a protocol provided by the manufacturer. 10×HBS-P (Biacore, Inc., Piscataway, N.J.) was diluted in water and served as the dilution and running buffer. Purified human or cyno TfR was captured, followed by a 3-fold dilution series of IgG or Fab that was injected at a flow rate of 30 ml/min using the single cycle kinetics method. Affinity constants were determined using a simple 1:1 Langmuir binding model or using a steady state model when kₒₙ or koff was beyond the detection limit. The equilibrium dissociation constant (KD) was calculated as the ratio of association rate constant (kₒₙ) and dissociation rate constant (koff).
(§2) These variants were screened as IgG by ELISA and SPR to identify positions important for binding to human and cyno TfR; the monovalent affinity of selected variants as Fab was also determined. […] Plates were washed with PBS/0.05% Tween 20 and blocked using Superblock blocking buffer in PBS (Thermo Scientific, Hudson, N.H.). Supernatants containing expressed IgG were diluted serially 1:5 and added to the plate for 1 h. […] Plates were washed with PBS/0.05% Tween 20 and 1:1000 diluted HRP-Goat-anti kappa (Southern Biotech) was added the plate and incubated for 1 h at room temperature. Plates were washed with PBS/0.05% Tween 20 and detected using TMB substrate (BioFX Laboratories, Owings Mills). Binding was also assessed by SPR, as described above.
Turning to B1, binding was put at a Kd of 228000 pM.

For B2, the Kd (commonly the equilibrium constant for the complex coming apart) stood at 123000 pM.

Turning to B3, binding was put at a Kd of 433000 pM.

A further experiment addresses T1, human TfR extracellular domain with …. The experiment can be described thus: SPR SCK 1:1 fit, IgG.
Description: as §1, §2
The molecule B1 returned an equilibrium dissociation constant (Kd) of 167000 pM.

The molecule B2 returned a dissociation constant (Kd) of 31000 pM.

Consider B3, for which the equilibrium dissociation constant (Kd) was 173000 pM.

The target is the same in the next experiment. The experiment can be described thus: ELISA, IgG.
In the case of B1, the EC50 (commonly the concentration that produces a half-maximal response) came out at 0.0458 µg/mL.

B2 registered a concentration giving a half-maximal response (EC50) of 0.0118 µg/mL.

In turn, B3 came in with a concentration giving a half-maximal response (EC50) of 0.274 µg/mL.

A further experiment deals with T2, cyno TfR extracellular domain (analogous construct to human TfR ecd) (cynomolgus monkey, UniProt Q5RDH6 87-760 (Pongo abelii entry)).
T2 construct: also called cynoTfR ecd
T2 chain: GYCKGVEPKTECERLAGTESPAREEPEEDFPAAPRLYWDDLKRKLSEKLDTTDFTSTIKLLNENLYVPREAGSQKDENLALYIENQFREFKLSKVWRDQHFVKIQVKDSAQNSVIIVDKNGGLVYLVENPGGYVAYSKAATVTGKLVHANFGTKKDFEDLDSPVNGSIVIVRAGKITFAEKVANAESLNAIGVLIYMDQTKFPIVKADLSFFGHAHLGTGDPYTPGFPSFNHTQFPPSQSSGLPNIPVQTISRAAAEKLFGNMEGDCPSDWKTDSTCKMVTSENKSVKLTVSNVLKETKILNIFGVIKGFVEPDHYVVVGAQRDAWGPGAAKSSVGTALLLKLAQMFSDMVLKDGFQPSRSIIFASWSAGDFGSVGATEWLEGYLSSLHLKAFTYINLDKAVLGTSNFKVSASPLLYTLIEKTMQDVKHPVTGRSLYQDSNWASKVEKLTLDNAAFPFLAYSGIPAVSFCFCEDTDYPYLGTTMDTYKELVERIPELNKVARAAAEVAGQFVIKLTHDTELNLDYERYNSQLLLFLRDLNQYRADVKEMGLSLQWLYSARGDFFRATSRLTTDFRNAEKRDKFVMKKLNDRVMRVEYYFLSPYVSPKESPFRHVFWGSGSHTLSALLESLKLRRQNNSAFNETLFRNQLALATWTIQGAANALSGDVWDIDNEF
Kind of experiment: ELISA, IgG. (ELISA stands for enzyme-linked immunosorbent assay.)
B1 came in with a half-maximal effective concentration (EC50) of 0.953 µg/mL.

For the molecule B3, the 50% effective concentration (EC50) was 3.38 µg/mL.

In a further experiment the target is T1, human TfR extracellular domain with …. The experiment can be described thus: SPR, TfR captured by anti-His, Fab injected.
Description: as §1
(§3) In both cases, the SPR experiments were performed as described above.
B4: the Kd was determined as 190 pM; the dissociation rate constant (koff) (commonly a measure of how fast the partners let go of each other) is 0.000313 s⁻¹; the kon (in general, the rate constant with which the complex forms) came to 1.65e+06 M⁻¹ s⁻¹.

Regarding B5, the koff was determined as 0.000169 s⁻¹ and the kon amounted to 131000 M⁻¹ s⁻¹.

B6 registered an off-rate (koff) of 0.00019 s⁻¹ and an association rate constant (kon) of 60700 M⁻¹ s⁻¹.

For a further experiment, the target named is T2, cyno TfR extracellular domain …. Kind of experiment: SPR, TfR captured by anti-His, Fab injected. (In general: SPR reads the build-up and loss of mass on a sensor chip optically.)
Description: as §1, §3
The molecule B4 registered a dissociation constant Kd of 741 pM, a koff of 0.000845 s⁻¹ and a kon of 1.14e+06 M⁻¹ s⁻¹.

Molecule B5 came in with an off-rate (koff) of 0.00244 s⁻¹ and a kon of 98900 M⁻¹ s⁻¹.

For B6, the koff stood at 0.00137 s⁻¹ and the kon is 51100 M⁻¹ s⁻¹.

For a further experiment the target is unchanged. The experiment can be described thus: SPR, TfR captured by anti-His, Fab injected. This is another data set of the same source.
Description: as §1, §3
B7: the Kd is 48000 pM.

In a further experiment the target is T3, human BACE1 ECD.
T3 construct: analyte of the Octet assay (200 nM) and enzyme of the first short substrate assay; also called human BACE1 extracellular domain
T3 sequence (single chain, as listed by the source limits assumed): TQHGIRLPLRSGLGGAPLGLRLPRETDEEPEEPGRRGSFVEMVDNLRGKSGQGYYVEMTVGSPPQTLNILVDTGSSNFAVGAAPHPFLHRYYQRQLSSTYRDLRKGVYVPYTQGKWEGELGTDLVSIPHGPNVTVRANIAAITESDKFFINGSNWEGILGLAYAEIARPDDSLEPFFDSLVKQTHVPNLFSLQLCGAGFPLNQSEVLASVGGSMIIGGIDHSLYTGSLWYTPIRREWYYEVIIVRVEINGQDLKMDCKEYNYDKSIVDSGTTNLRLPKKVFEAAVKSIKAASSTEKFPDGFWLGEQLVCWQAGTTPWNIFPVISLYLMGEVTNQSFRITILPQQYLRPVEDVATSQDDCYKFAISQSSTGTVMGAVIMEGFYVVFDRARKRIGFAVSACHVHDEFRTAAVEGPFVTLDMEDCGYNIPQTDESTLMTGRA
The experiment can be described thus: Octet, pH 5.0.
Description: (§4) Anti-BACE1 antibodies were loaded onto anti-human capture (AHC) sensors (tips) followed by 60 seconds baseline in assay buffer. […] Tips were transferred to assay buffer for 5 minutes, 30 minutes, or 120 minutes depending on the off-rate, for off-rate measurement. Assay buffer was either PBS+0.1% BSA, pH 7.5; or PBS+0.1% BSA, pH 5.0. Kinetics were analyzed using a 1:1 binding model.
Molecule B8 yielded a Kd of less than 130 pM.

B9 showed a Kd of less than 220 pM.

In turn, B10 gave a Kd of 200 pM.

With B11, the Kd is less than 210 pM.

Molecule B12 came in with a Kd of 350 pM.

As to B13, the Kd was less than 210 pM.

Consider B14, for which the Kd is less than 140 pM.

The target in another experiment is T4, murine BACE1 ECD.
T4 construct: analyte of the Octet assay (200 nM) and enzyme of the first short substrate assay
T4 sequence (single chain, as listed by the source limits assumed): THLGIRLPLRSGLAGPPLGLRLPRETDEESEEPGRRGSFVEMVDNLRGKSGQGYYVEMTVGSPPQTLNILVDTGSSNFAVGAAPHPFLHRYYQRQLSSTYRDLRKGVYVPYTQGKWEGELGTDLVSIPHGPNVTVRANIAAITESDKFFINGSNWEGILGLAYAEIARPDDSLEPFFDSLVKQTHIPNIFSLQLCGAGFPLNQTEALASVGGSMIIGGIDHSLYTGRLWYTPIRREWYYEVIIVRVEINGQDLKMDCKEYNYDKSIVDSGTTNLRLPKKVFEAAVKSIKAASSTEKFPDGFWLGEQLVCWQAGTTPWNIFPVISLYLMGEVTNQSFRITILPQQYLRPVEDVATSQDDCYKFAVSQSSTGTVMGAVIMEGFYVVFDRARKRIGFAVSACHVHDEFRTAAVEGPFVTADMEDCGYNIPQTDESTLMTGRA
The experiment can be described thus: Octet, pH 5.0.
Description: as §4
B8 showed a Kd of less than 170 pM.

Take B9: the dissociation constant (Kd) was less than 260 pM.

The molecule B10 came in with a dissociation constant (Kd) of 210 pM.

In turn, B11 had a Kd of less than 240 pM.

The molecule B12 came in with a Kd of 370 pM.

For B13, the dissociation constant Kd was less than 250 pM.

As for B14, the dissociation constant (Kd) is less than 170 pM.

The target in a further experiment is T3, human BACE1 ECD. Kind of experiment: Octet, pH 7.5. In general terms: BLI is a label-free optical method that tracks binding on a fibre tip over time.
Description: as §4
B8: the Kd was less than 140 pM.

B9 registered a dissociation constant (Kd) of 380 pM.

Regarding B10, the affinity, expressed as Kd, was 250 pM.

In turn, B11 returned a Kd of 410 pM.

The molecule B12 showed an equilibrium dissociation constant (Kd) of 340 pM.

As to B13, the Kd is less than 250 pM.

In turn, B14 came in with a Kd of less than 140 pM.

Another experiment concerns the target T4, murine BACE1 ECD. The experiment can be described thus: Octet, pH 7.5.
Description: as §4
Molecule B8 displayed a Kd of less than 150 pM.

Molecule B9 had a Kd of 330 pM.

As for B10, the dissociation constant (Kd) worked out at 240 pM.

B11 returned a Kd of 270 pM.

The molecule B12 showed a Kd of 320 pM.

Molecule B13 registered a Kd of less than 260 pM.

Turning to B14, the dissociation constant Kd was less than 150 pM.

In the next experiment the target is T2, cyno TfR extracellular domain …. The experiment can be described thus: SPR, KD on cyno TfR over KD on human TfR.
Description: as §1, §3
B4: the Cy/hu ratio came out at 3.9.

For B5, the Cy/hu ratio came out at 19.1.

With B6, the Cy/hu ratio worked out at 8.56.

The target in the next experiment is T1, human TfR extracellular domain with …. The experiment can be described thus: SPR, Fab.
Description: as §1, §2
For B15, the Kd was 280000 pM.

Regarding B16, binding was characterised by a dissociation constant (Kd) of 383000 pM.

The next experiment addresses BACE1 in primary mouse cortical neurons (mouse, UniProt P56818 46-501). The experiment can be described thus: cell-based or functional assay.
Regarding B8, the “IC50, Abeta x-40 in mouse cortical neurons” value turned out to be 450 pM and the “maximal % inhibition of Abeta x-40” value turned out to be 68%.

For B9, the “IC50, Abeta x-40 in mouse cortical neurons” value was 3380 pM and the “maximal % inhibition of Abeta x-40” value was determined as 71%.

With B10, the “IC50, Abeta x-40 in mouse cortical neurons” value is 150 pM and the “maximal % inhibition of Abeta x-40” value came to 63%.

With B11, the “IC50, Abeta x-40 in mouse cortical neurons” value came out at 2780 pM and the “maximal % inhibition of Abeta x-40” value is 67%.

Consider B12, for which the “IC50, Abeta x-40 in mouse cortical neurons” value stood at 300 pM and the “maximal % inhibition of Abeta x-40” value amounted to 60%.

For the molecule B13, the “maximal % inhibition of Abeta x-40” value came to 73%.

Consider B14, for which the “IC50, Abeta x-40 in mouse cortical neurons” value was determined as 680 pM and the “maximal % inhibition of Abeta x-40” value was determined as 60%.

The record behind these values is US20180057604A1 (Genentech, published 2018).
